This is an account of results in US20110165066A1 (AbbVie / Abbott, published 2011).

In assay [1] the target is T1, cynomolgus IL-13 (cynomolgus, UniProt Q0PW92 21-132). Description: cell-based or functional assay.
Assay [2] has as its target T2, human IL-13 variant (R130Q) (human, UniProt P35225 35-146). Description: cell-based or functional assay.
Assay [3] has as its target T3, mouse IL-13 (mouse, UniProt P20109 26-131, limits assumed).
T3 construct: also called mIL-13; murine IL-13
T3 sequence (looked up): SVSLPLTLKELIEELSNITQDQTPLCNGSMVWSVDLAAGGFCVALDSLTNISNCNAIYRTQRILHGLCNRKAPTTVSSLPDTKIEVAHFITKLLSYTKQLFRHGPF
Briefly: SPR (Biacore).

The target in assay [4] is T2, human IL-13 variant (R130Q). Description: SPR (Biacore), mAb captured, IL-13 as analyte; row shifted, read as variant IL-13 columns. The method, then: (§1) The BIACORE assay (Biacore, Inc, Piscataway, N.J.) determines the affinity of antibodies with kinetic measurements of on-, off-rate constants. […] All chemicals were obtained from Biacore® AB (Uppsala, Sweden) or otherwise from a different source as described in the text. Approximately 5000 RU of goat anti-mouse IgG, (Fcγ), fragment specific polyclonal antibody (Pierce Biotechnology Inc, Rockford, Ill.) diluted in 10 mM sodium acetate (pH 4.5) was directly immobilized across a CM5 research grade biosensor chip using a standard amine coupling kit according to manufacturer's instructions and procedures at 25 μg/ml. Unreacted moieties on the biosensor surface were blocked with ethanolamine. Modified carboxymethyl dextran surface in flowcell 2 and 4 was used as a reaction surface. Unmodified carboxymethyl dextran without goat anti-mouse IgG in flow cell 1 and 3 was used as the reference surface. For kinetic analysis, rate equations derived from the 1:1 Langmuir binding model were fitted simultaneously to association and dissociation phases of all eight injections (using global fit analysis) with the use of Biaevaluation 4.0.1 software. Purified antibodies were diluted in HEPES-buffered saline for capture across goat anti-mouse IgG specific reaction surfaces. Mouse antibodies to be captured as a ligand (25 μg/ml) were injected over reaction matrices at a flow rate of 5 μl/min. The association and dissociation rate constants, kₒₙ (unit M⁻¹s⁻¹) and koff (unit s⁻¹) were determined under a continuous flow rate of 25 μl/min Rate constants were derived by making kinetic binding measurements at ten different antigen concentrations ranging from 10-200 nM. […] Binding is recorded as a function of time and kinetic rate constants are calculated.

In assay [5] the target is T4, human IL-13 wild type (human, UniProt P35225 35-146).
T4 construct: also called h IL-13; h IL-13 wt
T4 sequence (P35225 other isoform, or with tags, fused parts or gaps limits assumed): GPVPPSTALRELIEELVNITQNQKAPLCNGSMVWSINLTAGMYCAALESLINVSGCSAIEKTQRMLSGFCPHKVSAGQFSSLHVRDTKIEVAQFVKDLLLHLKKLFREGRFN
Description: SPR (Biacore), mAb captured, IL-13 as analyte. The method, then:
as §1
(In SPR one partner is held on a chip, and binding of the other changes the refractive index at the surface.)

The target in assay [6] is T3, mouse IL-13. Briefly: cell-based or functional assay.
For assay [7], the target named is T3, mouse IL-13. Briefly: BIACORE against recombinant mouse IL-13.
Assay [8] has as its target T4, human IL-13 wild type. Briefly: receptor binding assays (cell surface-based on IL-13Rα2-transfected COS cells and ELISA-based with IL-13Rα2/Fc), 13C5.5 blocking human IL-13 binding to human IL-13Rα2; range told over both assays. Background: An ELISA detects its analyte on a solid surface through an enzyme-linked reagent.
The target in assay [9] is T4, human IL-13 wild type. Description: ELISA-based receptor binding assay, blocking biotin-IL-13 binding to IL-13Rα2/Fc. The method, then: After 16 hr, coating solution was removed by flicking plate contents in sink, and plates were washed and blocked 4 times with Superblock Blocking Buffer (240 ul/well) (Pierce). […] Plates were washed 5 times with 300 ul 0.1% PBST, and then 100 ul of 1:5000 diluted mouse anti-Biotin MAb (Jackson Immunosciences) was added and incubated at RT for 45 min. The plates were washed again 5 times with 300 ul 0.1% PBST, followed by addition of TMB substrate reagent (100 ul/well, Pharmingen); developed for 5 min, and stopped by adding 50 ul of 2M H2SO4 (VWR). ODs at 450 nm were determined by spectrophotometry.

For assay [10], the target named is T2, human IL-13 variant (R130Q). Description: SPR (Biacore).
Assay [11] has as its target T4, human IL-13 wild type. Description: SPR (Biacore).
In assay [12] the target is T2, human IL-13 variant (R130Q). Briefly: cell-based or functional assay. This is another data set of the same source.
For assay [13], the target named is T4, human IL-13 wild type. Description: cell-based or functional assay.
In assay [14] the target is T4, human IL-13 wild type. Description: cell surface-based receptor binding assay, blocking 125I-IL-13 binding to IL-13Rα2-transfected COS cells. The procedure:
Recombinant human IL-13 was labeled with ¹²⁵I (Amersham, Arlington Heights, Ill.), using IODO-GEN reagent (Pierce, Rockford, Ill.) as previously described (Obiri N I et al., (1995) J Biol Chem. 270:8797-8804). […] Transfected COS cells (5×10^5 cells in 100 μL binding buffer: RPMI 1640 containing 0.2% human serum albumin and 10 mmol HEPES) were incubated with 1.0 nM ¹²⁵I-IL-13 with or without 1 uM unlabeled IL-13 at 4° C. for 2 hours. Cell-bound ¹²⁵I-IL-13 was separated from unbound ¹²⁵I-IL-13 by centrifugation through a phthalate oil gradient, and radioactivity was determined with a gamma counter (Wallac, Gaithersburg, Md.).

The target in assay [15] is T4, human IL-13 wild type. Briefly: SPR (Biacore). The procedure:
as §1
This is another data set of the same source.

For assay [16], the target named is T4, human IL-13 wild type. Briefly: cell-based or functional assay. The source holds these as a separate data set.
Assay [17] deals with T2, human IL-13 variant (R130Q). Briefly: SPR (Biacore), mAb captured, IL-13 as analyte. The procedure: as §1
For assay [18], the target named is T3, mouse IL-13. Briefly: indirect ELISA, captured mAb, biotinylated mouse IL-13. The method, then:
Murine anti-human IL-13 mAbs were prepared at various concentrations ranging from 0.1 to 100 ng/ml in PBS containing 0.1% BSA; 50 ul of each antibody dilution was added to the coated ELISA plate and incubated for 1 hour at room temperature. Wells were washed 3 times with PBS containing 0.05% Tween-20. […] Wells were washed 3 times with PBS containing 0.05% Tween-20. Streptavidin HRP (Pierce #21126, Rockland, Ill.) was diluted 1:20000 in PBS containing 0.1% BSA; […] was added and the plates incubated for 1 hour at room temperature. Plates were washed 3 times with PBS containing 0.05% Tween-20. Fifty microliters of TMB solution (Sigma # T0440, St. Louis, Mo.) was added to each well and incubated for 10 minutes at room temperature. The reaction was stopped by addition of 1N sulphuric acid. Plates were read spectrophotmetrically at a wavelength of 450 nm.

In assay [19] the target is T4, human IL-13 wild type. Briefly: SPR (Biacore), mAb captured, IL-13 as analyte; native recombinant human wild-type IL-13, Biacore. The method, then: as §1
Assay [20] deals with T1, cynomolgus IL-13. Description: not stated in the sentence (Biacore elsewhere).
Assay [21] addresses T2, human IL-13 variant (R130Q). Briefly: not stated in the sentence (Biacore elsewhere).
Assay [22] has as its target T4, human IL-13 wild type. Description: blocking of IL-13 binding to IL-13Rα2: cell surface RBA (125I-IL-13, transfected COS cells) and receptor binding ELISA (IL-13Rα2/Fc); native IL-13 in solution; blocking of binding to IL-13Rα2, cell surface RBA and RB ELISA; lower end of range. The procedure:
(§2) The plates were washed again 5 times with 300 ul 0.1% PBST, followed by addition of TMB substrate reagent (100 ul/well, Pharmingen); developed for 5 min, and stopped by adding 50 ul of 2M H2SO4 (VWR). ODs at 450 nm were determined by spectrophotometry.
(§3) Additionally, the receptor blocking properties of the mAbs were also assessed by receptor binding assay using IL-13Rα2-transfected COS cells. Recombinant human IL-13 was labeled with ¹²⁵I (Amersham, Arlington Heights, Ill.), using IODO-GEN reagent (Pierce, Rockford, Ill.) as previously described (Obiri N I et al., (1995) J Biol Chem. 270:8797-8804). […] For binding experiments, COS cells were transiently transfected with human IL-13Rα2 by Lipofectamine 2000 (Invitrogen), and incubated for 48 hr. Transfected COS cells (5×10^5 cells in 100 μL binding buffer: RPMI 1640 containing 0.2% human serum albumin and 10 mmol HEPES) were incubated with 1.0 nM ¹²⁵I-IL-13 with or without 1 uM unlabeled IL-13 at 4° C. for 2 hours. Cell-bound ¹²⁵I-IL-13 was separated from unbound ¹²⁵I-IL-13 by centrifugation through a phthalate oil gradient, and radioactivity was determined with a gamma counter (Wallac, Gaithersburg, Md.).

Assay [23] has as its target T4, human IL-13 wild type. Description: blocking of IL-13 binding to IL-13Rα2: cell surface RBA (125I-IL-13, transfected COS cells) and receptor binding ELISA (IL-13Rα2/Fc); native IL-13 in solution; blocking of binding to IL-13Rα2, cell surface RBA and RB ELISA; upper end of range. The method, then: as §2, §3

Values joined by “and” are separate entries in the source; they are usually repeats but may differ in a detail not shown here. Equal entries are not always repeated.

T2 sequence (P35225 35-146 limits assumed, stated change not applied): as the sequence (P35225 other isoform, or with tags, fused parts or gaps limits assumed) above, with R110Q counted along it
T1 sequence (Q0PW92 entry or part of it): as the sequence (P35225 other isoform, or with tags, fused parts or gaps limits assumed) above, with G1S, R10K, M42V, S67N, H83R, L100V, R110Q counted along it

B1: 3H7 (antibody, mouse IgG1, V domains shown)
VH: EVQLVESGGGLVKPGGSLKLSCAASGFTFSTYAMSWVRQTPEKRLEWVAGISSGGSYTYYPETMKGRFTISRDNARNTLYLQMSSLRSEDTAIYYCTRGSWGQGTSVTVSS
VL: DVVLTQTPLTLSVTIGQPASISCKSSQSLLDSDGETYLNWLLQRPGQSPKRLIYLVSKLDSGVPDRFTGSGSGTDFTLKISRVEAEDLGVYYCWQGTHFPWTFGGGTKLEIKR
notes: Murine monoclonal; also called mAb 3H7
By Kd is commonly meant the equilibrium constant for the complex coming apart. The koff is a measure of how fast the partners let go of each other. A word on the kon: it is the rate constant with which the complex forms. Turning to B1, the “Average IC50, IL-13-induced TARC production by A-549 cells” value in the assay with cynomolgus IL-13 [1] was determined as 0.797 nM; in [2], 0.58 nM. For the same molecule, the Kd came out at 12 nM with mouse IL-13 [3], 0.22 nM in [4] and 11.2 nM with mouse IL-13 [7]. Further, in [4], the koff amounted to 5.58e-05 s⁻¹. The on-rate constant (kon) in assay [4] was found to be 254000 M⁻¹ s⁻¹. For the same molecule, the binding result with human IL-13 wild type [5] is given as “no binding”. In addition, the “IC50, A-549 bioassay against recombinant mouse IL-13” value with mouse IL-13 [6] stood at 2.43 nM.

B2: 13C5.5 (antibody, human IgG1, V domains shown)
VH: EVTLRESGPGLVKPTQTLTLTCTLYGFSLSTSDMGVDWIRQPPGKGLEWLAHIWWDDVKRYNPALKSRLTISKDTSKNQVVLKLTSVDPVDTATYYCARTVSSGYIYYAMDYWGQGTLVTVSS
VL: DIQMTQSPSSLSASVGDRVTISCRASQDIRNYLNWYQQKPGKAPKLLIFYTSKLHSGVPSRFSGSGSGTDYTLTISSLQPEDIATYYCQQGNTLPLTFGGGTKVEIK
notes: Humanized; The light chain row is printed 'VL 1305.5'; also called humanized 13C5; recombinant humanized antibody 13C5.5
In general, IC50 refers to the concentration needed to halve the response being measured. A low value points to higher potency. As for B2, the IC50 is ≥ 1 nM and ≤ 3 nM with human IL-13 wild type [8]; 1.1 nM with human IL-13 wild type [9]; 2.7 nM with human IL-13 wild type [14]. The Kd in [10] came to 0.05 nM; with human IL-13 wild type [11] it was 0.07 nM; in the assay with human IL-13 wild type [15] it was 0.0701 nM. Besides, the “Potency (IC50), A-549 bioassay” value in [12] worked out at 69 pM; with human IL-13 wild type [13], 124 pM. Besides, the koff with human IL-13 wild type [15] turned out to be 0.000176 s⁻¹. The molecule also registered a kon in the assay with human IL-13 wild type [15] of 2.51e+06 M⁻¹ s⁻¹.

B3: 13C5 (antibody, V domains shown)
VH: QVTLKESGPGILQPSQTLSLTCSFSGFSLSTSDMGVDWIRQPSGKGLEWLAHIWWDDVKRYNPALKSRLTISKDTSSSQVFLMLASVDTADTATYYCARTVSSGYIYYAMDYWGQGTSVTVSS
VL: DIQMTQTASSLSASLGDRVTISCRASQDIRNYLNWYQRKPDGTVKLLIFYTSKLHSGVPSRFSGSGSGTDYSLTIRNLEQEDIATYFCQQGNTLPLTFGGGTKLEIKR
notes: also called murine 13C5
Take B3: the figures for the “Average IC50, IL-13-induced TARC production by A-549 cells” value (with cynomolgus IL-13 [1]; in assay [2]; with human IL-13 wild type [16]) were 5 nM, 0.17 nM and 0.19 nM, respectively. Also, the dissociation constant Kd in assay [17] came out at 0.0759 nM; in the assay with human IL-13 wild type [19], 0.0745 nM; with cynomolgus IL-13 [20], 1.8 nM; in [21], 0.05 nM. The dissociation rate constant (koff) stood at 4.35e-05 s⁻¹ in assay [17] and 9.31e-05 s⁻¹ with human IL-13 wild type [19]. For the same molecule, the kon in assay [17] was 574000 M⁻¹ s⁻¹; in the assay with human IL-13 wild type [19], 1.25e+06 M⁻¹ s⁻¹. Further, the binding result in the assay with mouse IL-13 [18] is reported as “no binding (tested: 0.1 to 100 ng/ml)”. The IC50 with human IL-13 wild type [22] and with human IL-13 wild type [23] was 1 to 3 nM in each case.
